Values of other authors in PMC4729772 (Theranostics, 2016).

## Albiglutide: glucagon-like peptide-1 dimer fused to human albumin
  half-life: four to seven
